Data published in publication PMC3664427 (Circulation research, 2011).

Assays:
p53 DNA binding domain = p53 DNA binding domain (UniProt P04637 94-312); assay: SPR
[1] = target: fluorescein-labelled p53DBD (UniProt P04637 94-312, fluorescein label (site not stated)); assay: fluorescence polarisation
Sequence of fluorescein-labelled p53DBD (P04637 94-312): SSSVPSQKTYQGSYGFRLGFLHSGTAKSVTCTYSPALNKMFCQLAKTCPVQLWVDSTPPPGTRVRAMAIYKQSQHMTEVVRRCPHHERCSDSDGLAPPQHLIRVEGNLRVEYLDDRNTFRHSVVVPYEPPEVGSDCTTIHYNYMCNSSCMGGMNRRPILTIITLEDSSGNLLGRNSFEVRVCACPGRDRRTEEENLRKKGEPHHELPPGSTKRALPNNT

Sequence of p53 DNA binding domain (P04637 94-312): as above

Kd (p53 DNA binding domain): 765 ± 30 nM
Kd [1]: 2200 nM
B1: telethonin (natural protein, human, UniProt O15273 1-167, looked up)
chain: MATSELSCEVSEENCERREAFWAEWKDLTLSTRPEEGCSLHEEDTQRHETYHQQGQCQVLVQRSPWLMMRMGILGRGLQEYQLPYQRVLPLPIFTPAKMGATKEEREDTPIQLQELLALETALGGQCVDRQEVAEITKQLPPVVPVSKPGALRRSLSRSMSQEAQRG
